Assay results taken from PMC6814797, “C-terminal–modified LY2510924: a versatile scaffold for targeting C-X-C chemokine receptor type 4” (Scientific Reports, 2019).
Values belong to the molecule of their own block, whether it stands above or below them. Where a SMILES comes first, the peptide text is derived from it. Bridges are numbered along the chain shown (N, C = ends). [ ]: non-standard residue; d: D form. 2Nal = N[C@@H](Cc1ccc2ccccc2c1)C(=O)O; Lys(iPr) = CC(C)NCCCC[C@H](N)C(=O)O

How the values were obtained:
CXCR4 = target: T1, CXCR4 (Homo sapiens, UniProt P61073); test: Competitive binding assay: displacement of 125I-SDF-1α from CXCR4-expressing CCRF-CEM cells; conditions: CCRF-CEM 0.5 × 10^6 cells, 125I-SDF-1α 1 kBq, 0.25 nM SDF-1α, one hour, room temperature per method (b54 says 37 °C); mean ± SD, n = 3
T1 construct: were determined with CCRF-CEM cells expressing endogenous CXCR4; endogenous in cells; host or cells: CCRF-CEM (human acute lymphoblastic leukemia) whole cells
T1 sequence (P61073 whole entry): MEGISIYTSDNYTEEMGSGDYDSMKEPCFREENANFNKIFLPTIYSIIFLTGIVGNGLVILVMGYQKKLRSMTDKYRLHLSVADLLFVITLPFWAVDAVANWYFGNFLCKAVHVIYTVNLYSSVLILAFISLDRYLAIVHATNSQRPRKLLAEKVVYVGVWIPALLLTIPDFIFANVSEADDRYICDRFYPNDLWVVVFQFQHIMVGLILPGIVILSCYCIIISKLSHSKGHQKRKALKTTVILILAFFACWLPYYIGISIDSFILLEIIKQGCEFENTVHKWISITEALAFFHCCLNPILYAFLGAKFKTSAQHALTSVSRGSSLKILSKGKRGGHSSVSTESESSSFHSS
Method: CCRF-CEM cells and ^125I-SDF-1α were used for the competitive binding assay. The competitive binding assay was performed in a 96-well MultiScreen HTS FB plate (Merck) treated with 0.1% polyethyleneimine. RPMI-1640 containing 1% bovine serum albumin (BSA) and 0.05% Tween20 was used for the assay buffer. Briefly, 200-μL reaction mixtures containing CCRF-CEM (0.5 × 10^6 cells), ^125I-SDF-1α (1 kBq), SDF-1α (0.05 pmol; R&D Systems, Minneapolis, MN), and varying concentrations of CXCR4 antagonists were incubated at room temperature for one hour. After the incubation, the cells were washed three times with the assay buffer, and radioactivity counts of cells were determined with a gamma counter. The IC50 values were calculated by using GraphPad Prism version 5.04 (GraphPad Software, San Diego, CA).
Since the purpose of this study was to assess in vivo accumulation to CXCR4-expressing cells, the apparent binding affinities were determined at 37 °C. […] The half-maximal inhibitory concentration (IC50) values of FRM001, its Ga-, Lu-, and Y-complexes, and other CXCR4 antagonists were determined with CCRF-CEM cells expressing endogenous CXCR4[34]. The displacement of ^125I-SDF-1α bound to the CXCR4 with the compounds was also evaluated in the presence of 0.25 nM of SDF-1α.

in vivo = conditions: female, SCID (C.B-17/Icr-scid/scid), mouse, iv, total radioactivity; for tissue uptake at 4 h: biodistribution
Method: All animal experiments were conducted in accordance with the Guidelines for Proper Conduct of Animal Experiments issued by the Science Council of Japan (June 1, 2006), and all experimental protocols were approved by the Institutional Animal Care and Use Committee of FUJIFILM RI Pharma Co., Ltd. (Permit No. Rin-170802 and Rin-180101). The acute lymphoblastic leukemia CCRF-CEM model was prepared using a published procedure. Briefly, 5 × 10^6 cells mixed with Matrigel (1:1; Corning, Corning, NY) were implanted subcutaneously into the rear flank of female 10-week-old SCID mice (C.B-17/Icr-scid/scid; CLEA Japan, Tokyo). After an average of three weeks, the animals were used in biodistribution and PET imaging studies. Tumor volumes ranged from 709–2,257 mm^3, while the tumor mass-to-body weight ratio was 3.1–9.4%.
Mice were sacrificed at four hours after the injection. Organs of interest were removed, weighed, and the radioactivity counts were determined using a gamma counter. The biodistribution of each sample was expressed as a percentage of the injected dose per gram of wet tissue weight (%ID/g).

physchem = assay type: physicochemical; conditions: pH 7.4
Method: A solution of ^67Ga-FRM001 (168 kBq, 56.8 pmol of FRM001) in 0.5 mL of 1-octanol was added to a 0.5 mL solution of phosphate-buffered saline (PBS) (pH 7.4). The mixture was vortexed and rotated at room temperature for 5 min. After centrifugation at 13,000 × g for 5 min, the radioactivity concentrations in samples of both the aqueous and organic phases were determined by using a gamma counter, and the logPow values were calculated.

Structure (SMILES): c1ccc(CNCc2ccc(CN3CCCNCCNCCCNCC3)cc2)nc1 [AMD3465, reference compound]
- IC50 (CXCR4): 12.8 ± 1.52 nM

Structure (SMILES): CC(C)NCCCC[C@@H]1NC(=O)[C@H](Cc2ccc(O)cc2)NC(=O)[C@H](Cc2ccccc2)NC(=O)CC[C@H](C(=O)N[C@@H](CCCCNC(C)C)C(=O)N[C@@H](CSC2CC(=O)N(CCNC(=O)CN3CCN(CC(=O)O)CCN(CC(=O)O)CCN(CC(=O)O)CC3)C2=O)C(N)=O)NC(=O)CNC(=O)[C@H](Cc2ccc3ccccc3c2)NC(=O)[C@@H](CCCNC(=N)N)NC1=O (stereo partly shown) [Y-FRM001]
- IC50 (CXCR4): 0.89 ± 0.04 nM

Structure (SMILES): CC(C)NCCCC[C@@H]1NC(=O)[C@H](Cc2ccc(O)cc2)NC(=O)[C@H](Cc2ccccc2)NC(=O)CC[C@H](C(=O)N[C@@H](CCCCNC(C)C)C(=O)N[C@@H](CSC2CC(=O)N(CCNC(=O)CN3CCN(CC(=O)O)CCN(CC(=O)O)CCN(CC(=O)O)CC3)C2=O)C(N)=O)NC(=O)CNC(=O)[C@H](Cc2ccc3ccccc3c2)NC(=O)[C@@H](CCCNC(=N)N)NC1=O (stereo partly shown) [^67Ga-FRM001, metal not drawn]
- tissue to tissue ratio at 4 h (in vivo; 0.2 nmol FRM001/mouse): 59
- tissue uptake at 4 h (in vivo; 0.2 nmol FRM001/mouse, adrenals): 1.02 ± 0.192 %ID/g
- tissue uptake at 4 h (in vivo; 0.2 nmol FRM001/mouse, blood): 0.205 ± 0.033 %ID/g
- tissue uptake at 4 h (in vivo; 0.2 nmol FRM001/mouse, bone): 0.682 ± 0.099 %ID/g
- tissue uptake at 4 h (in vivo; 0.2 nmol FRM001/mouse, brain): 0.015 ± 0.003 %ID/g
- tissue uptake at 4 h (in vivo; 0.2 nmol FRM001/mouse, fat): 0.291 ± 0.137 %ID/g
- tissue uptake at 4 h (in vivo; 0.2 nmol FRM001/mouse, heart): 0.385 ± 0.063 %ID/g
- tissue uptake at 4 h (in vivo; 0.2 nmol FRM001/mouse, kidneys): 4.85 ± 0.501 %ID/g
- tissue uptake at 4 h (in vivo; 0.2 nmol FRM001/mouse, large intestine): 0.852 ± 0.318 %ID/g
- tissue uptake at 4 h (in vivo; 0.2 nmol FRM001/mouse, liver): 16.1 ± 2.66 %ID/g
- tissue uptake at 4 h (in vivo; 0.2 nmol FRM001/mouse, lungs): 2.01 ± 0.301 %ID/g
- tissue uptake at 4 h (in vivo; 0.2 nmol FRM001/mouse, muscle): 0.107 ± 0.018 %ID/g
- tissue uptake at 4 h (in vivo; 0.2 nmol FRM001/mouse, ovary): 0.808 ± 0.247 %ID/g
- tissue uptake at 4 h (in vivo; 0.2 nmol FRM001/mouse, skin): 0.404 ± 0.076 %ID/g
- tissue uptake at 4 h (in vivo; 0.2 nmol FRM001/mouse, small intestine): 0.355 ± 0.036 %ID/g
- tissue uptake at 4 h (in vivo; 0.2 nmol FRM001/mouse, stomach): 0.381 ± 0.417 %ID/g
- tissue uptake at 4 h (in vivo; 0.2 nmol FRM001/mouse, thymus): 1.57 ± 0.587 %ID/g
- tissue uptake at 4 h (in vivo; 0.2 nmol FRM001/mouse, tumor): 12 ± 1.99 %ID/g
- tissue uptake at 4 h (in vivo; 0.2 nmol FRM001/mouse, uterus): 0.944 ± 0.338 %ID/g
- tissue uptake at 4 h (in vivo; 0.2 nmol/mouse, pancreas): 0.198 ± 0.016 %ID/g
- tissue uptake at 4 h (in vivo; 0.2 nmol/mouse, spleen): 3.77 ± 0.195 %ID/g
- logD (physchem): -3.23 ± 0.05

Continued, values first:

- IC50 (CXCR4): 2.15 ± 0.14 nM
Structure (SMILES): CC(C)NCCCC[C@@H]1NC(=O)[C@H](Cc2ccc(O)cc2)NC(=O)[C@H](Cc2ccccc2)NC(=O)CC[C@H](C(=O)N[C@@H](CCCCNC(C)C)C(=O)N[C@@H](CSC2CC(=O)N(CCNC(=O)CN3CCN(CC(=O)O)CCN(CC(=O)O)CCN(CC(=O)O)CC3)C2=O)C(N)=O)NC(=O)CNC(=O)[C@H](Cc2ccc3ccccc3c2)NC(=O)[C@@H](CCCNC(=N)N)NC1=O (stereo partly shown) [Lu-FRM001]

- IC50 (CXCR4): 1.78 ± 0.15 nM
Structure (SMILES): CC(C)NCCCC[C@@H]1NC(=O)[C@H](Cc2ccc(O)cc2)NC(=O)[C@H](Cc2ccccc2)NC(=O)CC[C@H](C(=O)N[C@@H](CCCCNC(C)C)C(=O)N[C@@H](CSC2CC(=O)N(CCNC(=O)CN3CCN(CC(=O)O)CCN(CC(=O)O)CCN(CC(=O)O)CC3)C2=O)C(N)=O)NC(=O)CNC(=O)[C@H](Cc2ccc3ccccc3c2)NC(=O)[C@@H](CCCNC(=N)N)NC1=O (stereo partly drawn) [FRM001, cyclo[Phe-Tyr-Lys(iPr)-D-Arg-2-Nal-Gly-D-Glu]-Lys(iPr)-Cys(maleimido-mono-amide-DOTA)-NH2]

- IC50 (CXCR4): 1.37 ± 0.1 nM
Structure (SMILES): CC(C)NCCCC[C@H](NC(=O)[C@H]1CCC(=O)N[C@@H](Cc2ccccc2)C(=O)N[C@@H](Cc2ccc(O)cc2)C(=O)N[C@@H](CCCCNC(C)C)C(=O)N[C@H](CCCNC(=N)N)C(=O)N[C@@H](Cc2ccc3ccccc3c2)C(=O)NCC(=O)N1)C(N)=O [LY2510924, cyclo[Phe-Tyr-Lys(iPr)-D-Arg-2-Nal-Gly-D-Glu]-Lys(iPr)-NH2] (FY[Lys(iPr)][dR][2Nal]G[dE][Lys(iPr)]-NH2; lactam N-7)

- IC50 (CXCR4): 2.26 ± 0.51 nM
Structure (SMILES): CC(C)NCCCC[C@@H]1NC(=O)[C@H](Cc2ccc(O)cc2)NC(=O)[C@H](Cc2ccccc2)NC(=O)CC[C@H](C(=O)N[C@@H](CCCCNC(C)C)C(=O)N[C@@H](CSC2CC(=O)N(CCNC(=O)CN3CCN(CC(=O)O)CCN(CC(=O)O)CCN(CC(=O)O)CC3)C2=O)C(N)=O)NC(=O)CNC(=O)[C@H](Cc2ccc3ccccc3c2)NC(=O)[C@@H](CCCNC(=N)N)NC1=O (stereo partly shown) [Ga-FRM001]
